According to publication PMC2881812:

Target: p22(79-227) (T. brucei)
Assay: SEC

p22(79-227) (domain or fragment)
stoichiometry N: 3
